Measurements from IntAct's records for PubMed 29039417.

B1: Protein PTHB1 (Homo sapiens), Q3SYG4 (parent)
chain: MSLFKARDWWSTILGDKEEFDQGCLCLANVDNSGNGQDKIIVGSFMGYLRIFSPHPAKTGDGAQAEDLLLEVDLRDPVLQVEVGKFVSGTEMLHLAVLHSRKLCVYSVSGTLGNVEHGNQCQMKLMYEHNLQRTACNMTYGSFGGVKGRDLICIQSMDGMLMVFEQESYAFGRFLPGFLLPGPLAYSSRTDSFLTVSSCQQVESYKYQVLAFATDADKRQETEQQKLGSGKRLVVDWTLNIGEQALDICIVSFNQSASSVFVLGERNFFCLKDNGQIRFMKKLDWSPSCFLPYCSVSEGTINTLIGNHNNMLHIYQDVTLKWATQLPHIPVAVRVGCLHDLKGVIVTLSDDGHLQCSYLGTDPSLFQAPNVQSRELNYDELDVEMKELQKIIKDVNKSQGVWPMTEREDDLNVSVVVSPNFDSVSQATDVEVGTDLVPSVTVKVTLQNRVILQKAKLSVYVQPPLELTCDQFTFEFMTPDLTRTVSFSVYLKRSYTPSELEGNAVVSYSRPTDRNPDGIPRVIQCKFRLPLKLICLPGQPSKTASHKITIDTNKSPVSLLSLFPGFASQSDDDQVNVMGFHFLGGARITVLASKTSQRYRIQSEQFEDLWLITNELILRLQEYFEKQGVKDFACSFSGSIPLQEYFELIDHHFELRINGEKLEELLSERAVQFRAIQRRLLARFKDKTPAPLQHLDTLLDGTYKQVIALADAVEENQGNLFQSFTRLKSATHLVILLIALWQKLSADQVAILEAAFLPLQEDTQELGWEETVDAAISHLLKTCLSKSSKEQALNLNSQLNIPKDTSQLKKHITLLCDRLSKGGRLCLSTDAAAPQTMVMPGGCTTIPESDLEERSVEQDSTELFTNHRHLTAETPRPEVSPLQGVSE
partner: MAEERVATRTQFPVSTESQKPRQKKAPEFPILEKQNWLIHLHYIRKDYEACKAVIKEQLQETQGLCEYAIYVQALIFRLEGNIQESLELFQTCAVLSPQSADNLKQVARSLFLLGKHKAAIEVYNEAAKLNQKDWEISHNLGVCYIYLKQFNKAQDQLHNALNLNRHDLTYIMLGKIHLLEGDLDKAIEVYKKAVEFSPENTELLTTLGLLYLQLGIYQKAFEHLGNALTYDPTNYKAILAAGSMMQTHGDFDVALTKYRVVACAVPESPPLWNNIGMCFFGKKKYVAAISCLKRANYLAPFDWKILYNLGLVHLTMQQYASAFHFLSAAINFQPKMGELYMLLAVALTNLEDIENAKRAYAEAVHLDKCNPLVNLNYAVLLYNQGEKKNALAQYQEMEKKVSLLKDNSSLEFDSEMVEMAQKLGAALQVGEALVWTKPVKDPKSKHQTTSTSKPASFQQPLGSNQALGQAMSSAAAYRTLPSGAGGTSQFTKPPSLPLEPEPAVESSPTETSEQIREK

Variants of: B1
Conditions: with bbs4_human BBS4, Q96RK4

Variant | effect of a mutation on the interaction
L620E | with no effect
L620P | disrupting interaction strength
L620A | with no effect
L620K | with no effect
T595K | with no effect
T595E | with no effect
T595A | with no effect
F606E | with no effect
F606K | with no effect
F606A | with no effect
S637K | with no effect
S637A | with no effect
S637E | with no effect
S593E | with no effect
S593K | with no effect
D631E | with no effect
D631A | with no effect
D631K | with no effect
S596K | with no effect
S596A | with no effect
S596E | with no effect
P641E | with no effect
P641K | with no effect

Variant | effect of a mutation on the interaction
P641A | with no effect
E607A | with no effect
E607K | with no effect
H651E | with no effect
H651A | with no effect
H651K | with no effect
R619K | with no effect
R619E | with no effect
R619A | with no effect
F632A | with no effect
F632K | with no effect
F632E | with no effect
I601A | with no effect
I601E | with no effect
I601K | with no effect
L611A | with no effect
L611C | disrupting interaction strength
L611K | with no effect
L611E | with no effect
L611F | disrupting interaction strength
E604A | with no effect
E604K | with no effect
Y623A | with no effect

Variant | effect of a mutation on the interaction
Y623K | with no effect
Y623E | with no effect
R598A | with no effect
R598E | with no effect
R598K | with no effect
Q602E | with no effect
Q602K | with no effect
Q602A | with no effect
R600A | with no effect
R600G | disrupting interaction strength
R600E | with no effect
R600K | with no effect
F636E | with no effect
F636A | with no effect
F636K | with no effect
E622K | with no effect
E622A | with no effect
I640E | with no effect
I640A | with no effect
I640K | with no effect
I617K | with no effect
I617A | with no effect
I617E | with no effect

Variant | effect of a mutation on the interaction
I617T | disrupting interaction strength
N614K | with no effect
N614E | with no effect
N614A | with no effect
G628E | with no effect
G628A | with no effect
G628K | with no effect
F646K | with no effect
F646A | with no effect
F646E | with no effect
F624E | with no effect
F624K | with no effect
F624A | with no effect
Q597A | with no effect
Q597R | disrupting interaction strength
Q597E | with no effect
Q597K | with no effect
K594E | with no effect
K594A | with no effect
D650E | with no effect
D650A | with no effect
D650K | with no effect
Q621K | with no effect

Variant | effect of a mutation on the interaction
Q621A | with no effect
Q621E | with no effect
K626E | with no effect
K626A | with no effect
H652E | with no effect
H652A | with no effect
H652K | with no effect
W610A | with no effect
W610E | with no effect
W610K | with no effect
F653E | with no effect
F653K | with no effect
F653A | with no effect
Q627E | with no effect
Q627A | with no effect
Q627K | with no effect
Y599A | with no effect
Y599E | with no effect
Y599K | with no effect
A633E | with no effect
A633K | with no effect
I612A | with no effect
I612K | with no effect

Variant | effect of a mutation on the interaction
I612E | with no effect
G638E | with no effect
G638K | with no effect
G638A | with no effect
E625K | with no effect
E625A | with no effect
E644K | with no effect
E644A | with no effect
L616P | disrupting interaction strength
L616K | with no effect
L616E | with no effect
L616A | with no effect
C634A | with no effect
C634E | with no effect
C634K | with no effect
T613I | disrupting interaction strength
T613E | with no effect
T613A | with no effect
T613K | with no effect
Y645K | with no effect
Y645A | with no effect
Y645E | with no effect
S603K | with no effect

Variant | effect of a mutation on the interaction
S603N | disrupting interaction strength
S603A | with no effect
S603E | with no effect
K630E | with no effect
K630A | with no effect
L618E | with no effect
L618A | with no effect
L618K | with no effect
L648A | with no effect
L648E | with no effect
L648K | with no effect
L642K | with no effect
L642E | with no effect
L642A | with no effect
Q605E | with no effect
Q605K | with no effect
Q605A | with no effect
E647A | with no effect
E647K | disrupting interaction strength
E647G | disrupting interaction strength
D608E | with no effect
D608A | with no effect
D608K | with no effect

Variant | effect of a mutation on the interaction
I649K | with no effect
I649E | with no effect
I649A | with no effect
V629I | disrupting interaction strength
V629E | with no effect
V629K | with no effect
V629A | with no effect
S635K | with no effect
S635E | with no effect
S635A | with no effect
E615A | with no effect
E615K | with no effect
S639A | with no effect
S639K | with no effect
S639E | with no effect
L609E | with no effect
L609A | with no effect
L609K | with no effect
Q643E | with no effect
Q643A | with no effect
Q643K | with no effect
